{"source": "patent US20190375815A1", "about": "(Novartis, published 2019)", "binders": {"B1": {"name": "CD19scFv-G4S-CD3gECDTM-41BB (other)", "chain": "EIVMTQSPATLSLSPGERATLSCRASQDISKYLNWYQQKPGQAPRLLIYHTSRLHSGIPARFSGSGSGTDYTLTISSLQPEDFAVYFCQQGNTLPYTFGQGTKLEIKGGGGSGGGGSGGGGSQVQLQESGPGLVKPSETLSLTCTVSGVSLPDYGVSWIRQPPGKGLEWIGVIWGSETTYYSSSLKSRVTISKDNSKNQVSLKLSSVTAADTAVYYCAKHYYYGGSYAMDYWGQGTLVTVSSGGGGSQSIKGNHLVKVYDYQEDGSVLLTCDAEAKNITWFKDGKMIGFLTEDKKKWNLGSNAKDPRGMYQCKGSQNKSKPLQVYYRMCQNCIELNAATISGFLFAEIVSIFVLAVGVYFIAKRGRKKLLYIFKQPFMRPVQTTQEEDGCSCRFPEEEEGGCEL", "notes": "Chimeric membrane protein: CD19 scFv, G4S linker, CD3 gamma extracellular and transmembrane domains, 4-1BB; Expressed on JNL (Jurkat NFAT luciferase) cells by lentiviral transduction, alone or together with the CD22 TCAR (CD19/22 dual TCAR cells); also called CD19-TCAR; CD19 TCAR"}}, "target": "T1, CD22-Fc (UniProt P20273 20-687, limits assumed)", "T1 construct": "Soluble staining reagent, detected with an anti-Fc secondary antibody; not shown: Fc part", "T1 sequence (looked up)": "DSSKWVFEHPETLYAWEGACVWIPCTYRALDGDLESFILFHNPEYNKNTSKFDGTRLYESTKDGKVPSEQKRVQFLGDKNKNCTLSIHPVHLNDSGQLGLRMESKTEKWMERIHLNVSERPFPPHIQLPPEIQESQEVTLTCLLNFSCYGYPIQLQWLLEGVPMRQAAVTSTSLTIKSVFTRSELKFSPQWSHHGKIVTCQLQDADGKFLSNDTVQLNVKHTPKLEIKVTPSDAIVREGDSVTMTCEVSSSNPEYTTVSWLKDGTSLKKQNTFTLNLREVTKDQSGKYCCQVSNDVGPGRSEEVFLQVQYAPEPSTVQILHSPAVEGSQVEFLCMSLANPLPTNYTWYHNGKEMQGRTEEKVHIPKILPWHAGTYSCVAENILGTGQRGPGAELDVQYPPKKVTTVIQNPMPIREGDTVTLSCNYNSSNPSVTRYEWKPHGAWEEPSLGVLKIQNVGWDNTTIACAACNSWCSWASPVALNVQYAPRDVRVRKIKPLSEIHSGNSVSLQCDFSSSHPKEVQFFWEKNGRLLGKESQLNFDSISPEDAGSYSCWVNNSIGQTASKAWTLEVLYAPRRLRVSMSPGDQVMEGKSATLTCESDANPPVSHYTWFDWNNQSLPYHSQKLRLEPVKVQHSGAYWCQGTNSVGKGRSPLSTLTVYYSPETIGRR", "test": "flow cytometry of transduced JNL cells stained with CD22-Fc and anti-Fc secondary antibody", "text": "The Jurkat NFAT Luciferase (JNL) reporter cell line is based on the acute T cell leukemia line Jurkat. The line was modified to express luciferase under control of the Nuclear Factor of Activated T cells (NFAT) response element. For the transduction with TCARs, 400,000 JNL cells/well of a 12-well plate were transduced with a multiplicity of infection (MOI) of 1.5. Frozen virus-containing supernatant was thawed at room temperature and added to the respective wells. One well each was transduced with CD19-TCAR, CD22-TCAR, or CD19-TCAR plus CD22-TCAR (“CD19/22 dual TCAR”) at MOI=1.5 each. The plates were cultured for 6 days.\nTCAR-expressing T cells were tested for their target binding capability by flow cytometry. Non-transduced (UTD), CD19-TCAR, CD22-TCAR and CD19/22 dual TCAR expressing JNL cells were tested: cells were stained with CD22-Fc for 30 min at 4° C. After a wash, cells were stained with anti-Fc secondary antibody for 30 min at 4° C. After a second wash, cells were stained with CD19-CAR anti-idiotype antibody (Ab) for 30 min at 4° C. Cells were then analyzed on a FACS LSR Fortessa after a last wash. Data was analyzed using FlowJo software. […] CD22-TCAR expressing cells bound CD22-Fc but were not stained with the CD19-CAR anti-idiotype Ab (FIG. 47C).", "data": [{"binder": "B1", "values": [{"measurement": "binding result", "value": "no binding"}]}]}
